Paper PMC12657763, “SH2-mediated steric occlusion of the C2 domain regulates autoinhibition of SHIP1 inositol 5-phosphatase” (The Journal of Biological Chemistry, 2025)
Where no end group is shown, it is not given here. [ ]: non-standard residue; d: D form. pY = N[C@@H](Cc1ccc(OP(=O)(O)O)cc1)C(=O)O

B3: mNG-SHIP1(FL) (enzyme, human, UniProt Q92835-2 1-1188, looked up)
chain: MVPCWNHGNITRSKAEELLSRTGKDGSFLVRASESISRAYALCVLYRNCVYTYRILPNEDDKFTVQASEGVSMRFFTKLDQLIEFYKKENMGLVTHLQYPVPLEEEDTGDDPEEDTESVVSPPELPPRNIPLTASSCEAKEVPFSNENPRATETSRPSLSETLFQRLQSMDTSGLPEEHLKAIQDYLSTQLAQDSEFVKTGSSSLPHLKKLTTLLCKELYGEVIRTLPSLESLQRLFDQQLSPGLRPRPQVPGEANPINMVSKLSQLTSLLSSIEDKVKALLHEGPESPHRPSLIPPVTFEVKAESLGIPQKMQLKVDVESGKLIIKKSKDGSEDKFYSHKKILQLIKSQKFLNKLVILVETEKEKILRKEYVFADSKKREGFCQLLQQMKNKHSEQPEPDMITIFIGTWNMGNAPPPKKITSWFLSKGQGKTRDDSADYIPHDIYVIGTQEDPLSEKEWLEILKHSLQEITSVTFKTVAIHTLWNIRIVVLAKPEHENRISHICTDNVKTGIANTLGNKGAVGVSFMFNGTSLGFVNSHLTSGSEKKLRRNQNYMNILRFLALGDKKLSPFNITHRFTHLFWFGDLNYRVDLPTWEAETIIQKIKQQQYADLLSHDQLLTERREQKVFLHFEEEEITFAPTYRFERLTRDKYAYTKQKATGMKYNLPSWCDRVLWKSYPLVHVVCQSYGSTSDIMTSDHSPVFATFEAGVTSQFVSKNGPGTVDSQGQIEFLRCYATLKTKSQTKFYLEFHSSCLESFVKSQEGENEEGSEGELVVKFGETLPKLKPIISDPEYLLDQHILISIKSSDSDESYGEGCIALRLEATETQLPIYTPLTHHGELTGHFQGEIKLQTSQGKTREKLYDFVKTERDESSGPKTLKSLTSHDPMKQWEVTSRAPPCSGSSITEIINPNYMGVGPFGPPMPLHVKQTLSPDQQPTAWSYDQPPKDSPLGPCRGESPPTPPGQPPISPKKFLPSTANRGLPPRTQESRPSDLGKNAGDTLPQEDLPLTKPEMFENPLYGSLSSFPKPAPRKDQESPKMPRKEPPPCPEPGILSPSIVLTKAQEADRGEGPGKQVPAPRLRSFTCSSSAEGRAAGGDKSQGKPKTPVSSQAPVPAKRPIKPSRSEINQQTPPTPTPRPPLPVKSPAVLHLQHSKGRDYRDNTELPHHGKHRPEEGPPGPLGRTAMQ

Tests used:
[1] = molecular target: pY-ITIM peptide …(pY)SLIK, conjugated to the supported membrane; test: single-molecule TIRF-M dwell time on supported lipid bilayers; pY-ITIM peptide conjugated to the membrane (2% PI(3,4,5)P3, 2% MCC-PE, 96% DOPC); 20–50 pM mNG-SHIP1 in solution; 23 °C; single or double exponential fit of dwell times
[2] = molecular target: mNG-SHIP1(ΔCTD) (human); test: single-molecule photobleaching (TIRF-M); mNG-tagged SHIP1 bound to supported lipid bilayers with conjugated pY peptides (2% PI(3,4,5)P3, 2% MCC-PE, 96% DOPC); steps of photobleaching counted
[3] = molecular target: mNG-SHIP1(ΔCTD) (human); test: single-molecule brightness distribution (TIRF-M); mNG-SHIP1 bound to pY peptides on supported lipid bilayers; 50 pM mNG-SHIP1(FL), 50 pM mNG-SHIP1(ΔCTD) or 20 pM mNG-mSHIP1(ΔCTD); particle brightness in the second frame of each trajectory
[4] = molecular target: the molecule itself; test: SEC; purified mNG-SHIP1(RBD) on a size-exclusion chromatography column, multiple protein concentrations
[5] = molecular target: B3; test: TIRF-M membrane recruitment (bulk mNG fluorescence on supported lipid bilayers); pY-ITIM peptide conjugated to the membrane (2% PI(3,4,5)P3, 2% MCC-PE, 96% DOPC); 100 pM mNG-SHIP1 in solution; membrane density normalized to mNG-SHIP1(FL); settings: both partners purified
[6] = molecular target: the molecule itself; test: single-molecule photobleaching (TIRF-M); mNG-tagged SHIP1 bound to supported lipid bilayers with conjugated pY peptides (2% PI(3,4,5)P3, 2% MCC-PE, 96% DOPC); steps of photobleaching counted

mNG-SHIP1(ΔCTD) (domain or fragment) was tested, and the membrane dwell time τ1 [1] was 0.359 s, the membrane dwell time τ1 (dimers only) [1] was 1.79 s and the membrane dwell time τ2 [1] was 1.83 s. It also gave a stoichiometry N [2] of 2, an estimated fraction existing as dimers (corrected for mNG maturation) [3] of 26% and a fraction of legitimate dimers with two mNG visible [3] of 13%.

In the case of mNG-mSHIP1(ΔCTD) (domain or fragment), the membrane dwell time τ1 [1] is reported as 0.409 s.

B1: mNG-SHIP1(RBD) (domain or fragment, human, UniProt Q92835-2 151-290, looked up)
chain: ATETSRPSLSETLFQRLQSMDTSGLPEEHLKAIQDYLSTQLAQDSEFVKTGSSSLPHLKKLTTLLCKELYGEVIRTLPSLESLQRLFDQQLSPGLRPRPQVPGEANPINMVSKLSQLTSLLSSIEDKVKALLHEGPESPH
notes: the clone is UniProt Q92835 isoform 2, missing V117; A GGGGG linker stands between mNG and SHIP1; 42.7 kDa for the monomeric species; also called SHIP1(RBD) fused to an mNeonGreen (mNG); his10-mNG-GGGGG-SHIP1 (RBD, 151–290 amino acids); source: E. coli BL21 (DE3) Star, purified (HiTrap chelating column with CoCl2, TEV cleavage, Superdex 200); not shown: His10, N-terminal, cleaved; mNeonGreen, …
With B1 the “stoichiometry N” value [4] was 2.

B2: pY-ITIM peptide CKTEAENTIT(pY)SLIK, conjugated to the supported membrane (peptide)
peptide: C(MCC‑PE lipid)KTEAENTIT[pY]SLIK
notes: cysteine added to the N terminus for coupling to the maleimide lipid; also called membrane-conjugated pY-ITIM peptides; pY-conjugated peptide; source: synthetic peptide (Elim Biopharmaceuticals), covalently coupled to MCC-PE lipids of the supported membrane
B2: binds [5].

In the case of B3, the “stoichiometry N” value [6] is reported as 2.
